Experimental data taken from patent US20260184809A1 (Genmab, published 2026).

What was measured:
[1] = molecular target: T1, recombinant cynomolgus monkey EpCAM (R&D systems, cat no. 10451-EP) (cynomolgus monkey, UniProt Q1WER1 24-265 (rhesus entry)); test: BLI (Octet HTX); recombinant cynomolgus monkey EpCAM on anti-Penta-HIS sensors, antibody 1.56-100 nM in solution
T1 construct: also called cynomolgus monkey EpCAM extracellular domain
T1 sequence: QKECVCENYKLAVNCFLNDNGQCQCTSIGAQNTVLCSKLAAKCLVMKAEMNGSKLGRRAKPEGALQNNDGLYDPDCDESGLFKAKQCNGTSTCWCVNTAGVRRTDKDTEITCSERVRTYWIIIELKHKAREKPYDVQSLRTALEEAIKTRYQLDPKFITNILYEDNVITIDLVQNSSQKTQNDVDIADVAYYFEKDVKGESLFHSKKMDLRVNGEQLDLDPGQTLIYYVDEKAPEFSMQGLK

[2] = molecular target: T2, human EpCAM, full length, on cells (human, UniProt P16422 24-314); test: flow cytometry on CHO-S cells transiently transfected with full length human EpCAM, PE anti-human IgG F(ab')2
T2 construct: also called hEpCAM; EpCAM on DiFi, HPAF-II, A549, OV-90-SC12 and MDA-MB-231_hCLDN6_hEpCAM cells
T2 sequence: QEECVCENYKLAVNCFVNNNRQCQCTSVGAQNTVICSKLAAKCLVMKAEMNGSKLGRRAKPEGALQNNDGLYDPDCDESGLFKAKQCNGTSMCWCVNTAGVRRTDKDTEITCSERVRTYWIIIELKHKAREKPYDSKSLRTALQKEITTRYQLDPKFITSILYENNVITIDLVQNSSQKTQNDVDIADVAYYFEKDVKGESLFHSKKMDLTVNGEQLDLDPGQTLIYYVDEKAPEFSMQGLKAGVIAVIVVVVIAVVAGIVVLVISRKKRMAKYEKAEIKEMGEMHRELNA

[3] = molecular target: T3, mouse EpCAM, full length, on transfected CHO-S cells (mouse, UniProt Q99JW5 24-315); test: flow cytometry on CHO-S cells transiently transfected with full length mouse EpCAM, PE anti-human IgG F(ab')2
T3 sequence: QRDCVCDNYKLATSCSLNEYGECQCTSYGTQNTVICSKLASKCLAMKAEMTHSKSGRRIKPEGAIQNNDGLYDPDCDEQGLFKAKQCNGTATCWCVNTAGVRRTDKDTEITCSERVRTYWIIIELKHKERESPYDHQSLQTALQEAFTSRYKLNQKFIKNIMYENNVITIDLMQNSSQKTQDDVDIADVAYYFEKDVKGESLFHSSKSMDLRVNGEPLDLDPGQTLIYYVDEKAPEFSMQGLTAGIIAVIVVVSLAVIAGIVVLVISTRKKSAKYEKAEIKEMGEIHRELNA

[4] = molecular target: T4, His-tagged FcRn (SinoBiological, cat. no. CT009-H08H-B) (UniProt P55899 24-297; P61769 21-119); test: SPR kinetics at pH 6.0; His-tagged FcRn captured, antibody 0-100 nM as analyte
T4 construct: also called neonatal Fc receptor

[5] = molecular target: FcγRIa (CD64 Protein, Human, Recombinant (His Tag), Biotinylated; SinoBiological 10256-H08S-B) (human, UniProt P12314 16-288); test: SPR (Biacore 8K), His-tagged FcγR captured on anti-His chip, antibody as analyte, endpoint response against concentration
[6] = molecular target: T4, His-tagged FcRn (SinoBiological, cat. …); test: SPR kinetics at pH 6.0; His-tagged FcRn captured, antibody 0-100 nM as analyte; mean
[7] = molecular target: T2, human EpCAM, full length, on cells; test: flow cytometry on HPAF-II cells, PE anti-human IgG F(ab')2
[8] = molecular target: T2, human EpCAM, full length, on cells; test: flow cytometry on DiFi cells, PE anti-human IgG F(ab')2

T4 sequence (P55899 24-297 limits assumed, form in doubt, chain 1 of 2): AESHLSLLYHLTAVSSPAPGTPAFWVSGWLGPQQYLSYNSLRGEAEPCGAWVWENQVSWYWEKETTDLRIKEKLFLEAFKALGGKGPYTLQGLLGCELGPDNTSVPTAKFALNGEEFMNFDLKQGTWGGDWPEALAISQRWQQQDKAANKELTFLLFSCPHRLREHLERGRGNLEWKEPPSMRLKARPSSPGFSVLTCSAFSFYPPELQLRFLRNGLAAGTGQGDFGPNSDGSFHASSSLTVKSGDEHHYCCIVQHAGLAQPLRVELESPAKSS
T4 sequence (P61769 21-119 limits assumed, form in doubt, chain 2 of 2): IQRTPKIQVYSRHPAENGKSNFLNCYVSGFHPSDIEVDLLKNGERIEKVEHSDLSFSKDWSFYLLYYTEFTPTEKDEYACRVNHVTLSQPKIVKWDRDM
Chain of FcγRIa (CD64 Protein, Human, Recombinant (His Tag), Biotinylated; SinoBiological 10256-H08S-B) (P12314 16-288 limits assumed, stated change not applied): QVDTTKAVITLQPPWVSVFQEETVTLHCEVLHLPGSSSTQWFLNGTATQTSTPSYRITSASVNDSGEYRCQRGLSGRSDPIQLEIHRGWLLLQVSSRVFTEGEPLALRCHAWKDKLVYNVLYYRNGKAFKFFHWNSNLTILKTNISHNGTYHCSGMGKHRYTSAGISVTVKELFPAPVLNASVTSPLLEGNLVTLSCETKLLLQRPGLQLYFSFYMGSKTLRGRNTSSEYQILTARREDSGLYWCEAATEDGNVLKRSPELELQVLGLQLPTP

B1: BisG2amm-EpCAM-323-A3-AALT/m4-1BB-3H3-AAKR (bispecific antibody, mouse IgG2a, kappa)
heavy 1: QIQLVQSGPELKKPGETVKISCKASGYTFTNYGMNWVRQASGEGLKWMGWINTYTGEPTYGEDFKGRFAFSLETSASTAYLQINNLKNEDTATYFCARFGNYVDYWGQGTTLTVSSAKTTAPSVYPLAPVCGDTTGSSVTLGCLVKGYFPEPVTLTWNSGSLSSGVHTFPAVLQSDLYTLSSSVTVTSSTWPSQSITCNVAHPASSTKVDKKIEPRGPTIKPCPPCKCPAPNAAGGPSVFIFPPKIKDVLMISLSPMVTCVVVDVSEDDPDVQISWFVNNVEVLTAQTQTHREDYNSTLRVVSALPIQHQDWMSGKEFKCKVNNKALPAPIERTISKPKGSVRAPQVYVLPPPEEEMTKKQVTLTCMVTDFMPEDIYVEWTNNGKTELNYKNTEPVLDSDGSYLMYSKLTVEKKNWVERNSYSCSVVHEGLHNHHTTKSFSRTPG
light 1: DIVMTQAAFSNPVTLGTSASISCRSSKNLLHSNGITYLYWYLQKPGQSPHLLIYQMSNLASGVPDRFSSSGSGTDFTLRISRVEAEDVGVYYCAQNLEIPRTFGGGTKLEIKRADAAPTVSIFPPSSEQLTSGGASVVCFLNNFYPKDINVKWKIDGSERQNGVLNSWTDQDSKDSTYSMSSTLTLTKDEYERHNSYTCEATHKTSTSPIVKSFNRNEC
heavy 2: EMQLVESGGGLVQPGRSMKLSCAGSGFTLSDYGVAWVRQAPKKGLEWVAYISYAGGTTYYRESVKGRFTISRDNAKSTLYLQMDSLRSEDTATYYCTIDGYGGYSGSHWYFDFWGPGTMVTVSSAKTTAPSVYPLAPVCGDTTGSSVTLGCLVKGYFPEPVTLTWNSGSLSSGVHTFPAVLQSDLYTLSSSVTVTSSTWPSQSITCNVAHPASSTKVDKKIEPRGPTIKPCPPCKCPAPNAAGGPSVFIFPPKIKDVLMISLSPMVTCVVVDVSEDDPDVQISWFVNNVEVLTAQTQTHREDYNSTLRVVSALPIQHQDWMSGKEFKCKVNNKALPAPIERTISKPKGSVRAPQVYVLPPPEEEMTKKQVTLTCMVKDFMPEDIYVEWTNNGKTELNYKNTEPVLDSDGSYFMYSRLRVEKKNWVERNSYSCSVVHEGLHNHHTTKSFSRTPG
light 2: DIQMTQSPSLLSASVGDRVTLNCRTSQNVYKNLAWYQQKLGEAPKLLIYNANSLQAGIPSRFSGSGSGTDFTLTISSLQPEDVATYFCQQYYSGNTFGAGTNLELKRADAAPTVSIFPPSSEQLTSGGASVVCFLNNFYPKDINVKWKIDGSERQNGVLNSWTDQDSKDSTYSMSSTLTLTKDEYERHNSYTCEATHKTSTSPIVKSFNRNEC
notes: also called BsIgG2amm-EpCAM-323-A3-AALT/m4-1BB-3H3-AAKR; BisIgG2amm-EpCAM-323-A3-AALT/m4-1BB-3H3-AAKR
Response [1]: 0.02 nm

B2: bsIgG1-b12-FEAL/EpCAM-323-A3-FEAR (bispecific antibody)
heavy 1: QVQLVQSGAEVKKPGASVKVSCQASGYRFSNFVIHWVRQAPGQRFEWMGWINPYNGNKEFSAKFQDRVTFTADTSANTAYMELRSLRSADTAVYYCARVGPYSWDDSPQDNYYMDVWGKGTTVIVSSASTKGPSVFPLAPSSKSTSGGTAALGCLVKDYFPEPVTVSWNSGALTSGVHTFPAVLQSSGLYSLSSVVTVPSSSLGTQTYICNVNHKPSNTKVDKRVEPKSCDKTHTCPPCPAPEFEGGPSVFLFPPKPKDTLMISRTPEVTCVVVAVSHEDPEVKFNWYVDGVEVHNAKTKPREEQYNSTYRVVSVLTVLHQDWLNGKEYKCKVSNKALPAPIEKTISKAKGQPREPQVYTLPPSREEMTKNQVSLTCLVKGFYPSDIAVEWESNGQPENNYKTTPPVLDSDGSFLLYSKLTVDKSRWQQGNVFSCSVMHEALHNHYTQKSLSLSPG
light 1: EIVLTQSPGTLSLSPGERATFSCRSSHSIRSRRVAWYQHKPGQAPRLVIHGVSNRASGISDRFSGSGSGTDFTLTITRVEPEDFALYYCQVYGASSYTFGQGTKLERKRTVAAPSVFIFPPSDEQLKSGTASVVCLLNNFYPREAKVQWKVDNALQSGNSQESVTEQDSKDSTYSLSSTLTLSKADYEKHKVYACEVTHQGLSSPVTKSFNRGEC
heavy 2: QIQLVQSGPELKKPGETVKISCKASGYTFTNYGMNWVRQASGEGLKWMGWINTYTGEPTYGEDFKGRFAFSLETSASTAYLQINNLKNEDTATYFCARFGNYVDYWGQGTTLTVSSASTKGPSVFPLAPSSKSTSGGTAALGCLVKDYFPEPVTVSWNSGALTSGVHTFPAVLQSSGLYSLSSVVTVPSSSLGTQTYICNVNHKPSNTKVDKRVEPKSCDKTHTCPPCPAPEFEGGPSVFLFPPKPKDTLMISRTPEVTCVVVAVSHEDPEVKFNWYVDGVEVHNAKTKPREEQYNSTYRVVSVLTVLHQDWLNGKEYKCKVSNKALPAPIEKTISKAKGQPREPQVYTLPPSREEMTKNQVSLTCLVKGFYPSDIAVEWESNGQPENNYKTTPPVLDSDGSFFLYSRLTVDKSRWQQGNVFSCSVMHEALHNHYTQKSLSLSPG
light 2: DIVMTQAAFSNPVTLGTSASISCRSSKNLLHSNGITYLYWYLQKPGQSPHLLIYQMSNLASGVPDRFSSSGSGTDFTLRISRVEAEDVGVYYCAQNLEIPRTFGGGTKLEIKRTVAAPSVFIFPPSDEQLKSGTASVVCLLNNFYPREAKVQWKVDNALQSGNSQESVTEQDSKDSTYSLSSTLTLSKADYEKHKVYACEVTHQGLSSPVTKSFNRGEC
EC50 (read off the curve) [2]: ~0.1 µg/mL
EC50 (read off the curve) [3]: ~0.05 µg/mL

B3: IgG1-b12 (wild-type Fc) (antibody)
heavy: not shown
light: B2 light 1
koff [4]: 0.0322 s⁻¹
kon [4]: 1.1e+06 M⁻¹ s⁻¹
EC50 (read off the curve) [5]: ~50 nM
Kd [6]: 29 nM

B4: IgG1-EpCAM-C52-FEAR (antibody, V domains shown)
VH: QVQLVQSGAEVKKPGASVKVSCKASGGTFSSYAISWVRQAPGQGLEWMGGIVPIFGTANYAQKFQGRVTITADESTSTAYMELSSLRSEDTAVYYCARDPFLHYWGQGTLVTVSS
VL: EIELTQSPGTLSLSPGERATLSCRASQSVSSSYLAWYQQKPGQAPRLLIYGASSRATGIPDRFSGSGSGTDFTLTISRLEPEDFAVYYCAQGELYPRQFGGGTKLDIKR
EC50 (read off the curve) [7]: ~0.07 µg/mL
EC50 (read off the curve) [8]: ~0.3 µg/mL
